Literature values as cited in publication PMC9260958.

Target: Cys647 (UniProt position 647, LGEVHCGTNVR)
Assay: chemical modification (pH dependence of enzyme inactivation kinetics)
Details: not stated (the inactivator is not named in the sentence that gives the value)

In the case of “Protein arginine deiminase 2 (peptidylarginine deiminase 2, PAD2) (Homo sapiens (inferred; not stated in the article))”, the pKa is given as “∼8.2”.
